The target of assay [1] is T1, HLA-A*03 (human).
T1 construct: MHC monomer made peptide-receptive by UV cleavage of a UV-sensitive ligand; also called peptide-receptive MHC class I monomer
The assay is described as follows: UV peptide-exchange ELISA; ++++ = yield >75%. (In general: An ELISA detects its analyte on a solid surface through an enzyme-linked reagent.)

Assay [2] concerns the target T2, HLA-B*07 (human).
T2 construct: MHC monomer made peptide-receptive by UV cleavage of a UV-sensitive ligand; also called peptide-receptive MHC class I monomer
The assay is described as follows: UV peptide-exchange ELISA; +++ = yield >50%.

In assay [3] the target is T3, HLA-B*08 (human).
T3 construct: MHC monomer made peptide-receptive by UV cleavage of a UV-sensitive ligand; also called peptide-receptive MHC class I monomer
The assay is described as follows: UV peptide-exchange ELISA; ++++ = yield >75%.

Assay [4] addresses T4, HLA-A*24 (human).
T4 construct: MHC monomer made peptide-receptive by UV cleavage of a UV-sensitive ligand; also called peptide-receptive MHC class I monomer
Nature of the assay: UV peptide-exchange ELISA; +++ = yield >50%.

We go through 66 molecules from patent US11352401.

B1: RIADIFVKK (SEQ ID NO: 455) (peptide)
peptide: RIADIFVKK
B1 displayed a peptide exchange yield in assay [1] above 75%.

B2: RPMQQARAQL (SEQ ID NO: 459) (peptide)
peptide: RPMQQARAQL
Take B2: in assay [2], the peptide exchange yield fell in the range of 50 to 75%.

B3: DIYQRALNL (SEQ ID NO: 315) (peptide)
peptide: DIYQRALNL
In assay [3], B3 displayed a peptide exchange yield above 75%.

B4: LVKVKVLL (SEQ ID NO: 317) (peptide)
peptide: LVKVKVLL
In turn, B4 returned a peptide exchange yield in assay [3] above 75%.

B5: GIADFVLKY (SEQ ID NO: 458) (peptide)
peptide: GIADFVLKY
B5: the peptide exchange yield in assay [1] is above 75%.

B6: RLRSSLVFK (SEQ ID NO: 219) (peptide)
peptide: RLRSSLVFK
In turn, B6 returned a peptide exchange yield in assay [1] above 75%.

B7: TYLSIFDQL (SEQ ID NO: 60) (peptide)
peptide: TYLSIFDQL
The molecule B7 returned a peptide exchange yield in assay [4] of 50 to 75%.

B8: RYKQDVERF (SEQ ID NO: 383) (peptide)
peptide: RYKQDVERF
Molecule B8 yielded a peptide exchange yield in assay [4] of 50 to 75%.

B9: APHPPLSVV (SEQ ID NO: 275) (peptide)
peptide: APHPPLSVV
With B9, the peptide exchange yield in assay [2] fell in the range of 50 to 75%.

B10: LPPKKFVL (SEQ ID NO: 310) (peptide)
peptide: LPPKKFVL
Take B10: in assay [3], the peptide exchange yield is above 75%.

B11: MPQIETRVIL (SEQ ID NO: 282) (peptide)
peptide: MPQIETRVIL
For B11, in assay [2], the peptide exchange yield was 50 to 75%.

B12: LPFPKFTV (SEQ ID NO: 303) (peptide)
peptide: LPFPKFTV
B12 showed a peptide exchange yield in assay [3] above 75%.

B13: MPMQDIKM (SEQ ID NO: 296) (peptide)
peptide: MPMQDIKM
For B13, in assay [3], the peptide exchange yield is above 75%.

B14: RIREHVPQL (SEQ ID NO: 245) (peptide)
peptide: RIREHVPQL
As for B14, the peptide exchange yield in assay [2] was 50 to 75%.

B15: TPYQEHVAL (SEQ ID NO: 274) (peptide)
peptide: TPYQEHVAL
With B15, the peptide exchange yield in assay [2] was in the range of 50 to 75%.

B16: LLIKLLQTF (SEQ ID NO: 54) (peptide)
peptide: LLIKLLQTF
With B16, the peptide exchange yield in assay [4] is 50 to 75%.

B17: MLKQKVEEL (SEQ ID NO: 308) (peptide)
peptide: MLKQKVEEL
B17: the peptide exchange yield in assay [3] is above 75%.

B18: RALLARLLL (SEQ ID NO: 247) (peptide)
peptide: RALLARLLL
Regarding B18, in assay [2], the peptide exchange yield lay in the range of 50 to 75%.

B19: APREEQQRSL (SEQ ID NO: 287) (peptide)
peptide: APREEQQRSL
In turn, B19 gave a peptide exchange yield in assay [2] of 50 to 75%.

B20: SMFTAILKK (SEQ ID NO: 456) (peptide)
peptide: SMFTAILKK
B20 had a peptide exchange yield in assay [1] above 75%.

B21: WYGWHFPEL (SEQ ID NO: 76) (peptide)
peptide: WYGWHFPEL
Molecule B21 came in with a peptide exchange yield in assay [4] of 50 to 75%.

B22: MPLPWSLALP (SEQ ID NO: 271) (peptide)
peptide: MPLPWSLALP
In assay [2], B22 came in with a peptide exchange yield of 50 to 75%.

B23: TYNPDFSSL (SEQ ID NO: 16) (peptide)
peptide: TYNPDFSSL
As to B23, in assay [4], the peptide exchange yield lay within 50 to 75%.

B24: SYSSCYSF (SEQ ID NO: 14) (peptide)
peptide: SYSSCYSF
As for B24, in assay [4], the peptide exchange yield lay within 50 to 75%.

B25: VPLPAGGGTVL (SEQ ID NO: 230) (peptide)
peptide: VPLPAGGGTVL
In assay [2], B25 showed a peptide exchange yield of 50 to 75%.

B26: AIISRLVAL (SEQ ID NO: 314) (peptide)
peptide: AIISRLVAL
B26 had a peptide exchange yield in assay [3] above 75%.

B27: SYEVRSTF (SEQ ID NO: 21) (peptide)
peptide: SYEVRSTF
For B27, in assay [4], the peptide exchange yield fell in the range of 50 to 75%.

B28: RTMSEAALVRK (SEQ ID NO: 214) (peptide)
peptide: RTMSEAALVRK
B28 came in with a peptide exchange yield in assay [1] above 75%.

B29: SINKPTSER (SEQ ID NO: 457) (peptide)
peptide: SINKPTSER
Consider B29, for which the peptide exchange yield in assay [1] is above 75%.

B30: VQQWSVAVF (SEQ ID NO: 7) (peptide)
peptide: VQQWSVAVF
With B30, the peptide exchange yield in assay [4] lay in the range of 50 to 75%.

B31: VPLPAGGGTV (SEQ ID NO: 229) (peptide)
peptide: VPLPAGGGTV
In assay [2], B31 gave a peptide exchange yield of 50 to 75%.

B32: YYADKKTFIVL (SEQ ID NO: 17) (peptide)
peptide: YYADKKTFIVL
In turn, B32 gave a peptide exchange yield in assay [4] of 50 to 75%.

B33: ILLPRTVSL (SEQ ID NO: 307) (peptide)
peptide: ILLPRTVSL
B33 showed a peptide exchange yield in assay [3] above 75%.

B34: MAQFKEISL (SEQ ID NO: 299) (peptide)
peptide: MAQFKEISL
Regarding B34, the peptide exchange yield in assay [3] was above 75%.

B35: KQMEDGHTLF (SEQ ID NO: 36) (peptide)
peptide: KQMEDGHTLF
As to B35, in assay [4], the peptide exchange yield was 50 to 75%.

B36: LPRAGGAFL (SEQ ID NO: 276) (peptide)
peptide: LPRAGGAFL
In assay [2], B36 registered a peptide exchange yield of 50 to 75%.

B37: SYIGLPLTL (SEQ ID NO: 73) (peptide)
peptide: SYIGLPLTL
Molecule B37 came in with a peptide exchange yield in assay [4] of 50 to 75%.

B38: VFQEKHHVI (SEQ ID NO: 380) (peptide)
peptide: VFQEKHHVI
For B38, the peptide exchange yield in assay [4] was in the range of 50 to 75%.

B39: ELKKKEYEEL (SEQ ID NO: 313) (peptide)
peptide: ELKKKEYEEL
B39 registered a peptide exchange yield in assay [3] above 75%.

B40: RILNQILYY (SEQ ID NO: 217) (peptide)
peptide: RILNQILYY
In assay [1], B40 showed a peptide exchange yield above 75%.

B41: NYAENILTL (SEQ ID NO: 61) (peptide)
peptide: NYAENILTL
B41 yielded a peptide exchange yield in assay [4] of 50 to 75%.

B42: EIRIRVVQM (SEQ ID NO: 311) (peptide)
peptide: EIRIRVVQM
The molecule B42 came in with a peptide exchange yield in assay [3] above 75%.

B43: IYHSHHPTL (SEQ ID NO: 382) (peptide)
peptide: IYHSHHPTL
On to B43, for which the peptide exchange yield in assay [4] lay in the range of 50 to 75%.

B44: ELKKLYCQI (SEQ ID NO: 304) (peptide)
peptide: ELKKLYCQI
Take B44: the peptide exchange yield in assay [3] was above 75%.

B45: KSSVIASLLF (SEQ ID NO: 33) (peptide)
peptide: KSSVIASLLF
The molecule B45 showed a peptide exchange yield in assay [4] of 50 to 75%.

B46: KVYTPSISK (SEQ ID NO: 454) (peptide)
peptide: KVYTPSISK
In assay [1], B46 had a peptide exchange yield above 75%.

B47: NPFYPEVEL (SEQ ID NO: 222) (peptide)
peptide: NPFYPEVEL
Regarding B47, in assay [2], the peptide exchange yield lay in the range of 50 to 75%.

B48: RPAATAVISL (SEQ ID NO: 237) (peptide)
peptide: RPAATAVISL
As to B48, in assay [2], the peptide exchange yield fell in the range of 50 to 75%.

B49: ILKVKVGL (SEQ ID NO: 306) (peptide)
peptide: ILKVKVGL
B49 gave a peptide exchange yield in assay [3] above 75%.

B50: VPISEEGTPVL (SEQ ID NO: 280) (peptide)
peptide: VPISEEGTPVL
B50: the peptide exchange yield in assay [2] lay in the range of 50 to 75%.

B51: RWLPQKNAAQF (SEQ ID NO: 387) (peptide)
peptide: RWLPQKNAAQF
For the molecule B51, the peptide exchange yield in assay [4] is 50 to 75%.

B52: KAYEQVMHY (SEQ ID NO: 212) (peptide)
peptide: KAYEQVMHY
B52 registered a peptide exchange yield in assay [1] above 75%.

B53: EAMLRNKEL (SEQ ID NO: 312) (peptide)
peptide: EAMLRNKEL
B53 came in with a peptide exchange yield in assay [3] above 75%.

B54: MMFSGPQILKL (SEQ ID NO: 215) (peptide)
peptide: MMFSGPQILKL
In assay [1], B54 showed a peptide exchange yield above 75%.

B55: YPQHPGLNA (SEQ ID NO: 260) (peptide)
peptide: YPQHPGLNA
Regarding B55, the peptide exchange yield in assay [2] lay in the range of 50 to 75%.

B56: APSARVGVC (SEQ ID NO: 261) (peptide)
peptide: APSARVGVC
With B56, the peptide exchange yield in assay [2] lay within 50 to 75%.

B57: SPQRLRGLLL (SEQ ID NO: 292) (peptide)
peptide: SPQRLRGLLL
The molecule B57 showed a peptide exchange yield in assay [2] of 50 to 75%.

B58: YMHKLLVL (SEQ ID NO: 301) (peptide)
peptide: YMHKLLVL
B58 had a peptide exchange yield in assay [3] above 75%.

B59: QYEPPSAPSTTF (SEQ ID NO: 40) (peptide)
peptide: QYEPPSAPSTTF
Turning to B59, the peptide exchange yield in assay [4] was 50 to 75%.

B60: SPARASPAL (SEQ ID NO: 279) (peptide)
peptide: SPARASPAL
Molecule B60 showed a peptide exchange yield in assay [2] of 50 to 75%.

B61: RAQLKLVAL (SEQ ID NO: 297) (peptide)
peptide: RAQLKLVAL
Consider B61, for which, in assay [3], the peptide exchange yield was above 75%.

B62: RVIDAVRFTL (SEQ ID NO: 253) (peptide)
peptide: RVIDAVRFTL
The molecule B62 came in with a peptide exchange yield in assay [2] of 50 to 75%.

B63: ALKLRVAVL (SEQ ID NO: 305) (peptide)
peptide: ALKLRVAVL
B63 displayed a peptide exchange yield in assay [3] above 75%.

B64: TVNPVAIHK (SEQ ID NO: 211) (peptide)
peptide: TVNPVAIHK
B64 had a peptide exchange yield in assay [1] above 75%.

B65: AINTSIKNK (SEQ ID NO: 453) (peptide)
peptide: AINTSIKNK
B65 showed a peptide exchange yield in assay [1] above 75%.

B66: NYIVPDKQIF (SEQ ID NO: 379) (peptide)
peptide: NYIVPDKQIF
Molecule B66 yielded a peptide exchange yield in assay [4] of 50 to 75%.
